Consider two molecules from paper PMC5094776, “The miR165/166 Mediated Regulatory Module Plays Critical Roles in ABA Homeostasis and Response in Arabidopsis thaliana”.

The target of this data set is T1, GST-PHB (PHABULOSA, HD-ZIPIII) (Arabidopsis thaliana, UniProt O04291 1-852).
T1 sequence: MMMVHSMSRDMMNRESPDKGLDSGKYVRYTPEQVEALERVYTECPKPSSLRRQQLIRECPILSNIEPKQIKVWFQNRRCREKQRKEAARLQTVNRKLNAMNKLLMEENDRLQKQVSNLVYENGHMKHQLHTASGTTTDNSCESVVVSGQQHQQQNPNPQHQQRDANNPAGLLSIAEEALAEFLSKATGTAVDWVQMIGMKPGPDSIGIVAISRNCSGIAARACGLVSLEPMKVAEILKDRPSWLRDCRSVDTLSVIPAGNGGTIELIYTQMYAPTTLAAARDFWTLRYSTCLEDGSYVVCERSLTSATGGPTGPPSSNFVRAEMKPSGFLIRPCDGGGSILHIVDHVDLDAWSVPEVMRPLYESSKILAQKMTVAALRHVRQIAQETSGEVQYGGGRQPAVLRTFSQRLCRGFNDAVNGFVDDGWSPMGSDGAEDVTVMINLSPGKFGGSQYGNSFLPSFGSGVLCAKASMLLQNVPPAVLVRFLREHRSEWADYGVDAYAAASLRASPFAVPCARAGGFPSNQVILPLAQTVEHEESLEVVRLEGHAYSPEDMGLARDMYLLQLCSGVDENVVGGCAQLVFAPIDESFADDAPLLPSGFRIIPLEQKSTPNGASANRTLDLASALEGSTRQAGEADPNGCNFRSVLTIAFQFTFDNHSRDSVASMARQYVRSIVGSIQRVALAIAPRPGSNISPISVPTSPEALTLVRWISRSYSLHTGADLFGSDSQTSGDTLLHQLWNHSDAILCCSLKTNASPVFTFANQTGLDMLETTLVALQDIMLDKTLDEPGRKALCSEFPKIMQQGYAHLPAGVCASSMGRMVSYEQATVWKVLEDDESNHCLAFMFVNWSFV
Kind of data set: EMSA; unlabeled self-competitor at 10x and 100x also tested (gel only); 20 mM Tris-HCl pH 7.5, 300 mM NaCl, 5 mM MgCl2, 0.1% NP-40, 0.5 mM DTT, 20-60 min, room temperature; 6% PAGE in Tris-glycine. The settings on record: protein: recombinant; tags: GST (N-terminal, pGEX4T-1); chain copies: 2; label: 32P; blunt.

B1: ABI4 binding motif probe (dsDNA)
DNA 1: TTAGCCGTTATGTAATGATTTATTCTAGTTTCA
DNA 2: TGAAACTAGAATAAATCATTACATAACGGCTAA
For the molecule B1, the binding result was “binds”.

B2: BG1 binding motif probe (dsDNA)
DNA 1: AGAAGTTTTGGTAATGATACTGAAACACATTTC
DNA 2: GAAATGTGTTTCAGTATCATTACCAAAACTTCT
Consider B2, for which the binding result was “binds”.
